# Measured values published in the supplement of paper PMC10567573.
# B1: KLHL20 (parent)
# chain: YQDMIYAVGGRDDTTELSSAERYN
# Variants of: B1
# Experiment: protein stability index of a GFP-peptide fusion (GPS, HEK-293T) (PSI 1-6); higher = more stable
# Conditions: c terminus: a fixed tail appended
# 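Also: lentivirally expressed fusions sorted by FACS into six bins by GFP to DsRed ratio, PSI derived from sequencing read proportions per bin multiplied by bin number.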
row,Variant,protein stability index
1,YQDMIYAVGGYDDTTELSSAERYN,1.91
2,YQDMIYAVGGRDITTELSSAERYN,2.26
3,YQDMIYAVGGRDDTTELSSAFRYN,2.28
4,YQDMIYAVGGRDDTTELSSAEPYN,2.69
5,YQDMIYAVGGRDDTTEHSSAERYN,2.32
6,YQDMICAVGGRDDTTELSSAERYN,2.71
7,YQDMIYAIGGRDDTTELSSAERYN,1.97
8,YQDMIYAVGGRHDTTELSSAERYN,2.17
9,YQDMIYAVGGQDDTTELSSAERYN,2.75
10,YQDMIYAVGGRDDTTELSSAIRYN,1.95
11,GQDMIYAVGGRDDTTELSSAERYN,4.66
12,YQDMIYAVGGRDDTTELSSAERSN,2.54
13,YQDMIYAVGGRDDTTEDSSAERYN,2.12
14,YQDMIYAVGGNDDTTELSSAERYN,2.49
15,YQNMIYAVGGRDDTTELSSAERYN,2.63
16,YQDMIYAVGGRDDTTELSLAERYN,2.02
17,YQDMIYAVGGRDNTTELSSAERYN,2.01
18,YQDMIYAVGGRDDTTELSSAEQYN,2.77
19,YQDMIYAVGGRDDETELSSAERYN,2.78
20,YQDMIYAVGGRDDTTYLSSAERYN,1.69
21,EQDMIYAVGGRDDTTELSSAERYN,5.08
22,YQDMIYAVGGRDDHTELSSAERYN,1.98
23,YQDMIYAVGGFDDTTELSSAERYN,2.08
24,YFDMIYAVGGRDDTTELSSAERYN,2.79

row,Variant,protein stability index
1,YQDMVYAVGGRDDTTELSSAERYN,2.53
2,YQDMIYAVGGRDDTTELSSPERYN,2.05
3,YQDMIEAVGGRDDTTELSSAERYN,4.55
4,YQDMIYAVGGRDDTTELCSAERYN,2.07
5,YQDMIYAVGGRDDTTELSSARRYN,1.75
6,YQDMIYAVGGVDDTTELSSAERYN,2.16
7,YIDMIYAVGGRDDTTELSSAERYN,1.58
8,YQDMIYAVGGRDDTTELSSSERYN,1.98
9,YQDMIYAVGGRDDTTELSYAERYN,1.8
10,YQDMIYANGGRDDTTELSSAERYN,2.81
11,YQDMIYAVGGRDDVTELSSAERYN,2.25
12,YQDMIYAVGGRDDTTELSSAQRYN,1.95
13,YQDMIYAVGGRDDTTELHSAERYN,2.9
14,YQLMIYAVGGRDDTTELSSAERYN,1.81
15,YQDMIYAVGGMDDTTELSSAERYN,2.32
16,YQDMIYAVGGRDDTLELSSAERYN,2.58
17,YQDMIYAVGGRDDTTRLSSAERYN,2.51
18,YQDMIYAVEGRDDTTELSSAERYN,2.53
19,YQDMIYAVGQRDDTTELSSAERYN,2.61
20,YQDMIYAVGGRDDTTECSSAERYN,2.52
21,YQDMIYAVGGRDDTTELSSAERFN,2.13
22,YQDMIYAVGGRDGTTELSSAERYN,2
23,YQDHIYAVGGRDDTTELSSAERYN,2.55
24,YQDMIYAVGGRDDTTELSSAERYW,1.93

row,Variant,protein stability index
1,YQDMIYAVGGRDDTTETSSAERYN,2.89
2,YQDMIYAVGGRDDTTELSKAERYN,2.34
3,YQDMIYAVGGGDDTTELSSAERYN,2.33
4,YQDMIYAVGGRDVTTELSSAERYN,2.49
5,YQDMIYAVGGRDDTTELSSAVRYN,2.09
6,YMDMIYAVGGRDDTTELSSAERYN,3.03
7,YQDMIYAVGGRDDTTELSSAERDN,2.98
8,YQDMIYAVGGRDDTTELSSAERYG,2.99
9,YQDMIYTVGGRDDTTELSSAERYN,2.27
10,YQVMIYAVGGRDDTTELSSAERYN,1.86
11,YQDMIYAVGGKDDTTELSSAERYN,2.55
12,YQDRIYAVGGRDDTTELSSAERYN,2.75
13,YQDMIYAVGGRDDTTELSSNERYN,2.82
14,YQDMIYAVGGRGDTTELSSAERYN,2.47
15,YQDMIYAVGGRDDTTELSIAERYN,2.01
16,YQDMIYAVGGRDDTTELESAERYN,2.02
17,YQGMIYAVGGRDDTTELSSAERYN,1.47
18,YQDMIYAVGGRDDTTELLSAERYN,2.76
19,YQDMIYAVGGRDDTTELSSAARYN,2
20,YQDMIYAVGGRDDTTELSSAHRYN,2.04
21,YGDMIYAVGGRDDTTELSSAERYN,3.28
22,YQDMIYAVGGRDDTTELSSADRYN,2.29
23,YQTMIYAVGGRDDTTELSSAERYN,1.56
24,YQDCIYAVGGRDDTTELSSAERYN,2.68

row,Variant,protein stability index
1,YQDMIYAVMGRDDTTELSSAERYN,2.17
2,YQDMIYAVVGRDDTTELSSAERYN,2.02
3,YQDMIYAVGGRCDTTELSSAERYN,2.01
4,YQDMIYAVGGRKDTTELSSAERYN,2.1
5,YQDMIYHVGGRDDTTELSSAERYN,2.42
6,YQDMIYAVGGLDDTTELSSAERYN,1.99
7,YQDMIYAVGGEDDTTELSSAERYN,3
8,YQDMIYAVGGRDDTTELSVAERYN,1.99
9,YQDMIYAVGGRDDTTDLSSAERYN,2.34
10,YQDMIYAVGGRDDTTELSSMERYN,2.38
11,YQDMIVAVGGRDDTTELSSAERYN,3.01
12,YQDMIYAVGGRDDTTELSSAERYH,2.44
13,YQDMIYAVGGRDDTVELSSAERYN,2.08
14,YQMMIYAVGGRDDTTELSSAERYN,1.81
15,RQDMIYAVGGRDDTTELSSAERYN,4.89
16,YLDMIYAVGGRDDTTELSSAERYN,2.85
17,YQDQIYAVGGRDDTTELSSAERYN,2.66
18,YQDMIYAVGGRFDTTELSSAERYN,1.45
19,YQDMIYAVGGRDDLTELSSAERYN,2.48
20,YQDMIYAVGGRDDTTELYSAERYN,2.22
21,YQDMIYAVGGRDQTTELSSAERYN,2.11
22,YQDMIYAVGGRDDTTELPSAERYN,2.1
